According to the domain aggregation screens of Martell et al. (2025):

Test: soluble fraction after stress (log2 fold change); higher = more stays soluble; pooled small domains, quantitative proteomics
Details: stress: pH 4
How it was run: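 Aggregation propensity is estimated from the fold change in each domain's soluble amount after acid stress. Pooled small-domain libraries were stressed at pH 4, and higher log2 values mean more stayed soluble.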

Row | Sequence | soluble fraction (log2)
1 | HMRRTEKEIEQDVMRAIATIISEKGISSVTIKEVSNLSKTDVIVLERRFKNDEGLIKAYTSQ | 0.0814
2 | HMLTAHEAILKELRKMLLTGVLSPGEAVRPEIIGESFGVSAVPVREALRILEGEGQVLNRPHKGYVVT | -0.482
3 | HMTKPTLMEVEIKGAIQNPGVYTLKRNSSISKLIKMSGPLLENADTSSISFTHILQDKDVVVIPEIK | -0.177
4 | HMEQFRENIVRIYMEIDDYENGAKFLEMGNNRDASFYELAGDFYKYFGENELANENYDLAISA | -1.39
5 | HMAGPVLTPEEAEVLRILADHGEMTVDNISAEGKMSAAVVLRGLGVLSAYGLVAPGGPGRWRSE | 0.00808
6 | HMKKYFPPKSRFNPNKYLLKDWMALGLSEKQSQSILNFIQRGIYSNSALEKIYVMPEEVFTLIKDSTYYEE | -1.26
7 | HMKSKNRLTKSYLDSIPGVGRKRKSILLRYFGSIDQIKRASSEDIANVPGIGKITSDLVYNYFNQ | -0.23
8 | HMQDTVKNVFGAFTIFTDKPFAIGDTINVNGLEGTVVDVGMRSTQILGYDRRITSYPNYKITDSSIVNISS | -0.636
9 | HMAISEEEATNLALERVPGASAQDLRIQLEFDDGVQKYEGDIIYDGKEYDFEIDANTGTFLEWSE | 0.22
10 | HMHDPLATLTPREHEVMSLMAEGRTNAAIAQALVIGTGAVEKNVTSIFQKLGLDDSGTDHRRVLAVLAWLQ | -1.18
11 | HMRTVEQFQIRKIYAISNALGISDSRADEDELHVLVSGLTGKDSIKELTYREASVVIERLEELQ | -0.62
12 | HMSDAIQLEQKIGLEAIEWYLALSEQTDDKLLYQQWQSWLAADPQHQLAWSRIEQVNHGLNTL | -0.9
13 | HMKKTVTDSVELLTFLKDIFTNTSTNKLRKMLTTGRVTVNNIVIHKAKHILVQNDVVEIGDK | -0.0253
14 | HMAADRRKAERPLIDGQAVMDRFEVGPGPMVGKALKFLLALKRAEPDLDLAGTEERLDAWWNEQL | 0.289
15 | HMKFLHLADLHLGKRVNGFSMLEDQAYILRQILTILDDERPDGVLIAGDVYDKPVPPTEAVELLD | -0.632
16 | HMVAQQINDFRSERDASTGTLKRPLFDTLRDVISSRAQAYVSATGKPVTVEDLDRIYQAVEAEAKQAL | -0.349
17 | HMKGTLPEMITSREEVVLKFMVNGWDAKRIASELDISVLTVRKHIANIYEKLHVQSKAEIISMAHQQKWFN | -0.731
18 | HMELSVTDRTRQIRHILKEKGRVEFTSLFEELTKPYVIVTFLSVLEMSKNNELMITQDKTFGSITLEMKG | -0.383
19 | HMETVQTGTVKVSNSLNVRSGAGTNYSVLGSLSNGAKVEIVGTSGSWYKIKYGSGYGYVSKDYVTVS | -0.28
20 | HMGTIEEYSKYLINQYFDSLKKPMDAMTTSEKIEIVKSLDKKGIFNLKGSVGELAKRFNTSEKTIYRYLSS | 0.00746
21 | HMEFNQAVQDVNELSMQYAKSDVLWPEFEPKVLAFAKNELSQMPPNQWKFALQTFYNGLKQAA | -0.0767
22 | HMGSQQIEEGMRRLVASGALRPGASVPSVRDLARDLQVNPATVVRAYQRLVDAGLLVVRRGEGTFVAE | -0.103
23 | HMPRTEILMVDEEMEGERLDAFVAEQLDELSRSLVKTLIENGEIRVDGKQQKPSYRLKAGEEIIVEIPA | -0.438
24 | HMDTLKDFISGVSIVFENKYSVGDNVTIGDFRGDVIELGMKTTKIRAYTGEVLIIPNHLVEKVINH | -0.665
25 | HMQQDVLKLKSGGNYKGEYINIESAYVLFKPEGGNATQRIKVNEIQMLKLADGTEVIFGGRVK | 0.297
26 | HMFFAGLSPEAARTLDSLPLHSWSSVEQIARQAGLNIETVRKELGLLELSGIALSRQGRFRRA | 0.0761
27 | HMIVLPGEELEVHIVQEGKEDGQGVAYLDDGTMVVVEGGRPYVDSFAYVAVTRVLQTGAGRIIFAHPTR | -0.108
28 | HMNDSGIIGVVINDHEKYEGHVLEDGFISSSLSALSREIDVAGYFMMVKTVVYEGFFQELKGIGNV | 0.079

Row | Sequence | soluble fraction (log2)
29 | HMHQAVTVTKPARLFTGPDGKGVVRSLDVGMMLYPTGEKQGMMWEVEDELGNKGWVSSTLLELS | 0.197
30 | HMSRLMIVTPDGRIMDDVPEFGEVRTTTDVNGRVLVLDRNNVVIGFEMTPREYRREFGRNPF | 0.0337
31 | HMSNWYKNNETDQIWWKDTPDSVGEWLFSFDKKQVFNMFADYPHNLTPEQKKIFDEENPEWSDRP | -0.981
32 | HMIDFTHEDIERLWNAIVHYVPERQKSDMAIDFIKSLEDIGVEHDEIKASAEYDPKLEEAINTVY | -0.357
33 | HMKITLAESVYERIRRDIITNQLKPGEKINIRELSTRYEASETPIRLALNRLASENIIEHFPRQGMRVK | -0.0624
34 | HMSFVDFYGLFTTELQRLAELPVTADELIKNTGLHKSQLTDWLKRAEEDGVVKKLNRPVRYQVEKK | -0.989
35 | HMKINVQETEVYRYLLERADRLYSMILGEERENLMERTRFFEKEVAKASLPHLPKLYDEFSIYLDRLERG | -0.555
36 | HMHSEEAALLHRYIDSLEEPQHTVVVMRDIGGYSFEEIASVVQLKEAHIWMILSRARRKLRELYIKTMDHH | -0.101
37 | HMASMHDGVAARLRAMVFERELAPGEFIDERRLAQQWQISRTPLREALKVLAAEGLVELVPRRGARVV | -0.275
38 | HMTKKSLFNQYLDDQKRLDIVTLQKAELVDLHKLADELNIDQYNQLKKNELIFKILQSNPSE | -0.361
39 | HMEQVQQIPIEELFPFKEHPFKVLDDEAMQRTVESVAQYGVLAPLIARPRPEGGYEIISGHRRQHAAELYR | -0.445
40 | HMNKFRVGDEVEIVKLDKTIQHFGGEEVLSPVGTKTYITYVDVTGKEIEIDKDIYSYHADDLTLV | -1.76
41 | HMRRSKVMLESILDEIPQMGQARRAALLEQFGSVAALRKASLAEIAMTPGIGEKIAVIIFEYLQKSSH | -0.067
42 | HMFQPFFENLRKASIPVSLREYLTFLEGMKKGLVTYDIEAFYFLARAAMVKDERNIDKFDRAFSATFKG | 0.0456
43 | HMDGIIIPDVSGKSYAEAVATLNEKGFKVEKGEDAGSSLAKDLVSYTNPAAGNRAKSGATISVFVSTGANA | -0.0718
44 | HMNRPQDLGEPYDGQFREHPEAWAFYAAQSPSYRRSASWWVLGAKQEVTRQRRLAALIDASAQGTRIPALT | -0.0491
45 | HMQAKDVEIPNFVGKTLAEANADNKDNFNFVVESKYDASKELGVILEQEPAADSKLVKSGSQITLKV | 0.0557
46 | HMQELNDQQRLAILNEWNNRATNPPSLLELVRVAFPDAEGADGRSWHGKKVKEFLSTRQIKARAS | -0.282
47 | HMDTNELIDRYVNEVGQHLPRKTRADIEMELRSLLLDTLEEQSGGEPTPKMAAEVLREFGHPEEIAAQYH | -0.755
48 | HMREVVLNRIGSVAVQRATTRTWEEWVVTLDAEGMRGKEHRDVVGHLLRAHELTSWWAQMVSVGYEQSRGQ | -0.155
49 | HMGDWEKALAQFAAHRLANGSTAFLDEMYPIFERILLQAALNKTGGRKIEAAELLGWGRNTLTRKLKELGF | -1.01
50 | HMPQFDRQAFGQRLRLLRDYREMTQQQVANFLNVDRSTYSYYENGKTEPSITVLMRMAELFSVTLDSLLNM | -1.05
51 | HMKTPETSEYVVQAGDSLRRILTERYGAKEQDLPYLYRQFRLLNPKVSSLDNIHAGTKVRIPLVASVL | -0.0112
52 | HMKKYIEIYNYYKQLIESEQLKSGDKMPSVRKATKIFNVSKTTVQNAYFDLQADGYIIAAPKSGYYVTEM | -0.7
53 | HMAHLNYQTVDINALIRHSLQLVSQDAQSRGIALQFTPRPELTTISADPDRLNQVLLNLYLNAMQD | -0.205
54 | HMSNWYGTVVKIQPRPNAQAADTAVVKLLDGSEHRFPVWADHLTTIEVGSRLKKLSGGWDPVLMDPEETF | -0.573
55 | HMLPNLWVMGPGDHLWRVAEVAMTKHLGRPVANHEIDGYWRRLVALNRESLIDPDNPDLVFAGQVIELPPF | -2.2
